According to the supplement of paper PMC10567573:

B1: CLCN6 (parent)
chain: TGLVGLFVDFFVRLFTQLKFGVVQ

Variants of: B1
Experiment: protein stability index of a GFP-peptide fusion (GPS, HEK-293T) (PSI 1-6); higher = more stable
Conditions: c terminus: a fixed tail appended
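Note: lentivirally expressed fusions sorted by FACS into six bins by GFP to DsRed ratio, PSI derived from sequencing read proportions per bin multiplied by bin number.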

Protein stability index, by site and new letter:
G5: Y 2.08
F20: Q 3.83; W 2.63; G 2.89; C 3.79; N 3.99; A 3.03; V 2.84; Y 2.55; H 2.58; M 2.77; D 4.13; E 3.61; L 2.96; R 4.55; T 3.48; I 2.97; S 3.86; P 2.12; K 4.3
V8: W 3.01; P 1.7; L 3.04; E 1.38; D 2.45; M 2.08; C 2.25; R 2.25; H 2.77; A 1.6; F 2.04; G 2.9; K 2.04; Y 2.79; Q 2.05; T 1.9; I 1.74; N 2.27; S 1.76
K19: E 4.38; V 2.66; L 2.56; R 2.17; G 1.98; Y 2.85; S 2.92; A 2.84; W 3.05; N 2.21; Q 2.89; M 3.13; H 3.23; T 2.33; F 1.89; D 3.05; P 1.91
R13: K 2.73; N 1.91; D 1.83; H 2.22; T 2.19; V 1.76; G 1.54; M 3.23; C 2.09; E 2.34; Q 1.81; I 2.59; S 1.84; F 2.96; W 2.1; A 2.04; Y 2.62; P 3.13
L14: P 1.68; M 2.27; I 2.25; F 2.57; W 2.8; R 1.86; Q 1.55; G 1.68; C 2.1; S 2.19; K 2.34; V 2.02; Y 2.25; N 1.83; D 4.06; T 1.99; A 1.61; H 1.85
L6: G 3.36; T 2.71; W 3.31; M 2.93; N 2.76; F 2.4; Q 3.53; D 2.33; Y 3.19; E 2.25; S 2.99; H 3.06; C 2.69; A 2.77; V 2.15; R 3.73; P 2.65; K 2.44; I 2.83
V23: H 1.81; G 2.18; A 2.27; N 2; Y 2.51; L 2.92; C 2.78; E 1.94; T 2.36; F 2.98; W 3.3; S 2.73; K 2.45; Q 2.77; D 2.41; I 2.23; M 2.68; R 3.09; P 1.97
T16: S 2.91; Q 3; D 2.42; P 1.8; W 3.32; I 2.41; N 3.55; V 1.78; K 2.76; L 2.02; M 2.35; A 2.43; R 3.85; H 2.78; Y 1.98; C 1.99; E 1.75; F 2.04; G 2.81
F10: I 2.21; Q 1.85; C 1.42; P 2.17; W 2.7; M 1.81; A 2.34; G 1.29; D 2.75; L 1.77; H 1.61; R 2.82; Y 2.27; S 1.8; E 2.19; K 1.98; V 2.42; N 2.32; T 2
D9: E 2.12; N 2.87; S 2.15; H 2.61; W 1.51; L 1.86; M 1.89; R 3.51; Q 2.24; A 1.59; C 1.25; I 2.68; G 2.47; Y 1.89; F 2.17; K 3.08; P 1.92; T 1.97
F15: V 2.72; N 2.67; A 1.96; L 1.96; T 2.51; S 2.76; R 2.27; D 2.88; I 3.25; M 1.77; P 2.86; C 2.2; K 2.12; W 3.46; H 2.71; Q 3.33; Y 2.73; G 2.95
G21: H 3.06; D 2.38; A 3.26; N 2.38; V 3; F 3.79; M 3.39; L 3.33; E 2.3; Y 3.39; S 3.08; K 3.7; I 2.94; Q 2.77; W 3.59; R 3.56; C 1.86; P 2.35; T 2.4
V12: R 2.04; L 1.95; E 1.96; Q 2.52; F 2.1; P 1.78; D 1.73; T 2.08; N 1.56; W 2.95; K 1.91; C 2.71; Y 3.07; G 2.11; S 2.45; I 2.02; H 2.09; M 2.47; A 2.11
F11: P 2.07; Q 3.25; H 2.21; Y 2.32; L 2.32; S 1.77; R 2.75; I 2.29; W 2.35; E 2.4; D 4.03; K 3.06; M 2.16; A 2.84; T 2.01; G 1.76; N 2.88; V 2.65; C 2.93
L18: H 3.39; M 2.48; N 3.66; A 1.97; K 2.02; I 2.7; P 2.63; F 2.46; V 1.98; R 2.74; D 2.25; C 2.36; T 2.75; W 1.66; Y 3.06; G 2.21; S 2.03
Q17: L 2.43; E 2; T 2.12; V 2.14; D 1.81; K 2.48; M 2.09; N 2.44; F 2.44; C 2.01; P 2.08; G 1.77; S 2.81; A 2.38; H 2.26; Y 2.06; W 3.5; I 1.79; R 3.5
V22: Y 2.36; M 2.58; H 1.92; W 2.72; G 1.72; Q 2.48; A 1.77; K 2.26; T 2.18; S 2.33; N 1.25; R 2.34; L 2.5; C 1.87; E 3.23; P 2.07; I 2.84; F 2.6
F7: Q 2.03; H 2.44; V 3.05; P 2.28; D 3.18; L 2.77; T 2.35; M 2.56; G 1.73; Y 2.54; I 2.57; W 2.28; E 4.32; S 1.82; R 1.69; A 2.38; K 1.78; N 1.84; C 2.89
